Measured values reported in PMC7545097, “Mapping the native interaction surfaces of PREP1 with PBX1 by cross-linking mass-spectrometry and mutagenesis” (Scientific Reports, 2020).

Experiments:
Conditions in all cases: both partners purified
[1] = target: T1, N-terminal GST-fused wild-type PREP1 (UniProt P55347 1-436); test: ELISA; PBX1 wild-type coated at 0.1 µM in 100 mM Tris–HCl pH 7.5; GST-fused proteins at 0.23 nM to 0.5 µM, 1 h at 37 °C; anti-GST detection; GST signal subtracted; one-site binding model
T1 construct: PREP1 (PKNOX1), residues 1-436; Detected through GST in the ELISA; also called GST-fused PREP1; source: E. coli, purified; not shown: GST, N-terminal, kept
T1 sequence (looked up): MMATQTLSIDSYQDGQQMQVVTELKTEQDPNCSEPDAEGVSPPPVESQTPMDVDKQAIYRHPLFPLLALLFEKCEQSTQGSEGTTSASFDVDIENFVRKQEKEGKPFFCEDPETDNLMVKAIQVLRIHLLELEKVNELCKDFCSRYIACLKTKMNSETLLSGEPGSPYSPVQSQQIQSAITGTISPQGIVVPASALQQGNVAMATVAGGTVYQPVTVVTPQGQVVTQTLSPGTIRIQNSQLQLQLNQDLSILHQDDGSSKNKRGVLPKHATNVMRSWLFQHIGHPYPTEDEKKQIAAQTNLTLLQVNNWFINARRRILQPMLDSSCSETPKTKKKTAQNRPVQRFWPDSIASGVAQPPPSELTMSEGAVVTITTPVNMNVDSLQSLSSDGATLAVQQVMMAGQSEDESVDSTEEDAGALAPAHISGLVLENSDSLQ

PBX1 I197A = target: T2, PBX1 I197A (human, UniProt P40424 1-430, I197A); test: time-resolved fluorescence immunoassay (TR-FIA); plate coated with monoclonal anti-PBX1; PBX1 pre-incubated with PREP1 or MEIS1 for 1 h on ice, 10 µg/mL in 1% BSA PBS, 1 h at room temperature on the plate; detected with anti-PREP1 or biotinylated anti-MEIS1/2 and Eu^3+ conjugates; normalised to the wild-type protein taken as 1
T2 construct: PBX1, residues 1-430; source: E. coli, purified
T2 sequence (looked up): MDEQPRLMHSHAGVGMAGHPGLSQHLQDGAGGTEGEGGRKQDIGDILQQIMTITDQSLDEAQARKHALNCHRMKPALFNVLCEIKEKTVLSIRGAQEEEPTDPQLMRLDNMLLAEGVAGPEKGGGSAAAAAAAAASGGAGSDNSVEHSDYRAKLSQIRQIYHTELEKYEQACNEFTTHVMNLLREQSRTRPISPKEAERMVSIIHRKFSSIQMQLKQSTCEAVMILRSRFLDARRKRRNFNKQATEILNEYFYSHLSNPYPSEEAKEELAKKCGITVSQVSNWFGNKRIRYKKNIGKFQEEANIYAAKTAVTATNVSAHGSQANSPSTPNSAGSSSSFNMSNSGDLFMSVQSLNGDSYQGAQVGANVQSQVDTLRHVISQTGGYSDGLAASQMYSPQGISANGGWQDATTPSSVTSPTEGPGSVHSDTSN

[2] = target: T3, PBX1 with substitution of both 204 and 211 residues (I204A/I211A) (human, UniProt P40424 1-430, I204A | I211A); test: as above
T3 construct: PBX1, residues 1-430; source: E. coli, purified
T3 sequence (looked up): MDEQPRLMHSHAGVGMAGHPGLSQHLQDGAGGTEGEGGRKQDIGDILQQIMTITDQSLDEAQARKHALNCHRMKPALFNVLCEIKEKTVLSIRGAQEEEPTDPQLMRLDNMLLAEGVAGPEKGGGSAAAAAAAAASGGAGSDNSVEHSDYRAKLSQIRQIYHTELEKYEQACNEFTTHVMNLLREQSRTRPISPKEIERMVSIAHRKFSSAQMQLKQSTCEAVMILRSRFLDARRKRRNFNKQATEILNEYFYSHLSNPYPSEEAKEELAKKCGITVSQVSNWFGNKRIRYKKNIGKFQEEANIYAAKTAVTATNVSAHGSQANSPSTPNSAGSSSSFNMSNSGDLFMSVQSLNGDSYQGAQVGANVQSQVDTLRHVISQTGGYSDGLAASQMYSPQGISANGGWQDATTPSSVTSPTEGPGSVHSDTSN

B1: PBX1_(1-430), wild-type recombinant (natural protein, human, UniProt P40424 1-430, looked up)
chain: MDEQPRLMHSHAGVGMAGHPGLSQHLQDGAGGTEGEGGRKQDIGDILQQIMTITDQSLDEAQARKHALNCHRMKPALFNVLCEIKEKTVLSIRGAQEEEPTDPQLMRLDNMLLAEGVAGPEKGGGSAAAAAAAAASGGAGSDNSVEHSDYRAKLSQIRQIYHTELEKYEQACNEFTTHVMNLLREQSRTRPISPKEIERMVSIIHRKFSSIQMQLKQSTCEAVMILRSRFLDARRKRRNFNKQATEILNEYFYSHLSNPYPSEEAKEELAKKCGITVSQVSNWFGNKRIRYKKNIGKFQEEANIYAAKTAVTATNVSAHGSQANSPSTPNSAGSSSSFNMSNSGDLFMSVQSLNGDSYQGAQVGANVQSQVDTLRHVISQTGGYSDGLAASQMYSPQGISANGGWQDATTPSSVTSPTEGPGSVHSDTSN
notes: also called wild-type PBX1; purified recombinant human PBX1; source: E. coli, purified
Kd [1]: 18 ± 4 nM

B2: PREP1_(1-436), wild-type recombinant (TR-FIA) (natural protein, UniProt P55347 1-436, looked up)
chain: MMATQTLSIDSYQDGQQMQVVTELKTEQDPNCSEPDAEGVSPPPVESQTPMDVDKQAIYRHPLFPLLALLFEKCEQSTQGSEGTTSASFDVDIENFVRKQEKEGKPFFCEDPETDNLMVKAIQVLRIHLLELEKVNELCKDFCSRYIACLKTKMNSETLLSGEPGSPYSPVQSQQIQSAITGTISPQGIVVPASALQQGNVAMATVAGGTVYQPVTVVTPQGQVVTQTLSPGTIRIQNSQLQLQLNQDLSILHQDDGSSKNKRGVLPKHATNVMRSWLFQHIGHPYPTEDEKKQIAAQTNLTLLQVNNWFINARRRILQPMLDSSCSETPKTKKKTAQNRPVQRFWPDSIASGVAQPPPSELTMSEGAVVTITTPVNMNVDSLQSLSSDGATLAVQQVMMAGQSEDESVDSTEEDAGALAPAHISGLVLENSDSLQ
notes: also called wild-type PREP1; PKNOX1; source: E. coli, purified
binding relative to wild type (PBX1 I197A): ~65%
binding relative to wild type [2]: ~50%
